This passage reports Kd results from article PMC5490261, “The structural and functional characterization of human RecQ4 reveals insights into its helicase mechanism”.

The target in one series is T1, RecQ4 427-1208 WT (Homo sapiens, UniProt O94761 427-1208).
T1 sequence: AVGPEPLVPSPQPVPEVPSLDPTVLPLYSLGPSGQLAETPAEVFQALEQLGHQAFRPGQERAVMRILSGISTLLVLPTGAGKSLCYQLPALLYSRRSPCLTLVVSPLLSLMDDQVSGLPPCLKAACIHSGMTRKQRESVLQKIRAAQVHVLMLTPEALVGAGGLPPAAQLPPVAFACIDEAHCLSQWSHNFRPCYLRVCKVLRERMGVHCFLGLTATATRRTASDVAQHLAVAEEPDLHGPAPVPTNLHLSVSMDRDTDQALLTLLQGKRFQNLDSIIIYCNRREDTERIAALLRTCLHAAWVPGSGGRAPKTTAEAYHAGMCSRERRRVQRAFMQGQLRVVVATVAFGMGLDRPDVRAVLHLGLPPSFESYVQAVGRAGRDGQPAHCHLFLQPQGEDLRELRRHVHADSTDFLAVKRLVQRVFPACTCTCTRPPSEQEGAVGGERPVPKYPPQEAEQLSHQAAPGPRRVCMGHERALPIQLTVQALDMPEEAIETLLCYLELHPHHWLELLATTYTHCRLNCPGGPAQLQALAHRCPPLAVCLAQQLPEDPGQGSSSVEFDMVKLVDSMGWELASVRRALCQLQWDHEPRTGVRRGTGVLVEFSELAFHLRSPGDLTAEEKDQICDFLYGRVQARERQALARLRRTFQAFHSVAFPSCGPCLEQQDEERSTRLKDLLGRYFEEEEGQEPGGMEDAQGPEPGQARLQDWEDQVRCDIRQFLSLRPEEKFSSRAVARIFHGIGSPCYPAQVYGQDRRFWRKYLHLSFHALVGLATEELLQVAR
As to the kind of experiment: fluorescence polarization; apparent Kd; 20 mM HEPES pH 8.0, 10 mM NaCl, 5% glycerol, 1 mM MgCl2, 0.5 mM TCEP, 0.5 nM Cy3-ssDNA; temperature not stated. As to conditions: protein: recombinant; tags: Trx-His6 removed by 3C protease; label: 5' Cy3.

The target in the next series is T2, RecQ4 427-1116 (Homo sapiens, UniProt O94761 427-1116).
T2 sequence: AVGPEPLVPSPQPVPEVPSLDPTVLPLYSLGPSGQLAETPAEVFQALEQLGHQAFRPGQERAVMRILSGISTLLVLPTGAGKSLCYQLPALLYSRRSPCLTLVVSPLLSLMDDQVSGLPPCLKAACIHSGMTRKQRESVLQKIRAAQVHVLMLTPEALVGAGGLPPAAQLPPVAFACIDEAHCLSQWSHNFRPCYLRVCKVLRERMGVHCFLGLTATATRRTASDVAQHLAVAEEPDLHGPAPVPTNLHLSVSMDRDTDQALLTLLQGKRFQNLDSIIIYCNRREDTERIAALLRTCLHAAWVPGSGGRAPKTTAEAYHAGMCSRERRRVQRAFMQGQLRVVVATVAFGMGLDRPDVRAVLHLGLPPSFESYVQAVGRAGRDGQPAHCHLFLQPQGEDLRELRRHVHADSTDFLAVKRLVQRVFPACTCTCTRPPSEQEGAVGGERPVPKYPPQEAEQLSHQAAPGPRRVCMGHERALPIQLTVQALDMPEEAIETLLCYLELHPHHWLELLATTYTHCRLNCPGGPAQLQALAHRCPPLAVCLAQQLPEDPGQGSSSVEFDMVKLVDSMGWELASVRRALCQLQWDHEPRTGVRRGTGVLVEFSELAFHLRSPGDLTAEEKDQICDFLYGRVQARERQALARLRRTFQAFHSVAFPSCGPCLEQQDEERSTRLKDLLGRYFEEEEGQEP
Described as above. As to conditions: protein: recombinant; tags: Trx-His6 removed by 3C protease; label: 5' Cy3.

B1: T3-Cy3 (ssDNA)
DNA: CCATTCCACCCTCTATTTTTTTTTTTTTTT
B1: the Kd is 4.6 ± 0.4 nM in the series with RecQ4 427-1208 WT and 18.1 ± 0.8 nM in the series with RecQ4 427-1116.
